Key:
HeLa Kyoto [1] = assay: solubility in G1/S (NP-40 vs SDS abundance) (log2 ratio); higher = more soluble; conditions: cell cycle stage: G1/S
HeLa Kyoto [2] = assay: melting temperature (median over replicates), in situ; higher = more thermally stable
HeLa Kyoto [3] = assay: solubility change mitosis vs G1/S (difference of NP-40 vs SDS log2 ratios) (log2 ratio difference); higher = more soluble in mitosis
HeLa Kyoto [4] = assay: thermal stability score vs G1/S (z-score of summed log2 fold changes over temperatures); higher = more thermally stable than in G1/S
[5] = cell cycle stage: early G1 (4.5 h after nocodazole release)
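Wherever melting temperature (median over replicates), in situ is given: HeLa Kyoto cells synchronized by double thymidine or nocodazole block, proteins quantified by TMT10plex mass spectrometry, three independent biological replicates.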
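Wherever solubility change mitosis vs G1/S (difference of NP-40 vs SDS log2 ratios) is given: synchronized HeLa Kyoto cells (double thymidine block for G1/S, nocodazole release for mitosis), protein amounts in NP-40 versus SDS lysates quantified by mass spectrometry, three biological replicates.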
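Wherever solubility in G1/S (NP-40 vs SDS abundance) is given: HeLa Kyoto cells arrested at G1/S by double thymidine block, proteins quantified by TMT10plex mass spectrometry in mild NP-40 versus SDS extracts, three biological replicates.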
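Wherever thermal stability score vs G1/S (z-score of summed log2 fold changes over temperatures) is given: synchronized HeLa Kyoto cells, proteins quantified by TMT10plex mass spectrometry, three biological replicates, mitosis taken 0.5 h after nocodazole release, G1/S directly after double thymidine block.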

Chain of UBR4 (chain, as listed by the source): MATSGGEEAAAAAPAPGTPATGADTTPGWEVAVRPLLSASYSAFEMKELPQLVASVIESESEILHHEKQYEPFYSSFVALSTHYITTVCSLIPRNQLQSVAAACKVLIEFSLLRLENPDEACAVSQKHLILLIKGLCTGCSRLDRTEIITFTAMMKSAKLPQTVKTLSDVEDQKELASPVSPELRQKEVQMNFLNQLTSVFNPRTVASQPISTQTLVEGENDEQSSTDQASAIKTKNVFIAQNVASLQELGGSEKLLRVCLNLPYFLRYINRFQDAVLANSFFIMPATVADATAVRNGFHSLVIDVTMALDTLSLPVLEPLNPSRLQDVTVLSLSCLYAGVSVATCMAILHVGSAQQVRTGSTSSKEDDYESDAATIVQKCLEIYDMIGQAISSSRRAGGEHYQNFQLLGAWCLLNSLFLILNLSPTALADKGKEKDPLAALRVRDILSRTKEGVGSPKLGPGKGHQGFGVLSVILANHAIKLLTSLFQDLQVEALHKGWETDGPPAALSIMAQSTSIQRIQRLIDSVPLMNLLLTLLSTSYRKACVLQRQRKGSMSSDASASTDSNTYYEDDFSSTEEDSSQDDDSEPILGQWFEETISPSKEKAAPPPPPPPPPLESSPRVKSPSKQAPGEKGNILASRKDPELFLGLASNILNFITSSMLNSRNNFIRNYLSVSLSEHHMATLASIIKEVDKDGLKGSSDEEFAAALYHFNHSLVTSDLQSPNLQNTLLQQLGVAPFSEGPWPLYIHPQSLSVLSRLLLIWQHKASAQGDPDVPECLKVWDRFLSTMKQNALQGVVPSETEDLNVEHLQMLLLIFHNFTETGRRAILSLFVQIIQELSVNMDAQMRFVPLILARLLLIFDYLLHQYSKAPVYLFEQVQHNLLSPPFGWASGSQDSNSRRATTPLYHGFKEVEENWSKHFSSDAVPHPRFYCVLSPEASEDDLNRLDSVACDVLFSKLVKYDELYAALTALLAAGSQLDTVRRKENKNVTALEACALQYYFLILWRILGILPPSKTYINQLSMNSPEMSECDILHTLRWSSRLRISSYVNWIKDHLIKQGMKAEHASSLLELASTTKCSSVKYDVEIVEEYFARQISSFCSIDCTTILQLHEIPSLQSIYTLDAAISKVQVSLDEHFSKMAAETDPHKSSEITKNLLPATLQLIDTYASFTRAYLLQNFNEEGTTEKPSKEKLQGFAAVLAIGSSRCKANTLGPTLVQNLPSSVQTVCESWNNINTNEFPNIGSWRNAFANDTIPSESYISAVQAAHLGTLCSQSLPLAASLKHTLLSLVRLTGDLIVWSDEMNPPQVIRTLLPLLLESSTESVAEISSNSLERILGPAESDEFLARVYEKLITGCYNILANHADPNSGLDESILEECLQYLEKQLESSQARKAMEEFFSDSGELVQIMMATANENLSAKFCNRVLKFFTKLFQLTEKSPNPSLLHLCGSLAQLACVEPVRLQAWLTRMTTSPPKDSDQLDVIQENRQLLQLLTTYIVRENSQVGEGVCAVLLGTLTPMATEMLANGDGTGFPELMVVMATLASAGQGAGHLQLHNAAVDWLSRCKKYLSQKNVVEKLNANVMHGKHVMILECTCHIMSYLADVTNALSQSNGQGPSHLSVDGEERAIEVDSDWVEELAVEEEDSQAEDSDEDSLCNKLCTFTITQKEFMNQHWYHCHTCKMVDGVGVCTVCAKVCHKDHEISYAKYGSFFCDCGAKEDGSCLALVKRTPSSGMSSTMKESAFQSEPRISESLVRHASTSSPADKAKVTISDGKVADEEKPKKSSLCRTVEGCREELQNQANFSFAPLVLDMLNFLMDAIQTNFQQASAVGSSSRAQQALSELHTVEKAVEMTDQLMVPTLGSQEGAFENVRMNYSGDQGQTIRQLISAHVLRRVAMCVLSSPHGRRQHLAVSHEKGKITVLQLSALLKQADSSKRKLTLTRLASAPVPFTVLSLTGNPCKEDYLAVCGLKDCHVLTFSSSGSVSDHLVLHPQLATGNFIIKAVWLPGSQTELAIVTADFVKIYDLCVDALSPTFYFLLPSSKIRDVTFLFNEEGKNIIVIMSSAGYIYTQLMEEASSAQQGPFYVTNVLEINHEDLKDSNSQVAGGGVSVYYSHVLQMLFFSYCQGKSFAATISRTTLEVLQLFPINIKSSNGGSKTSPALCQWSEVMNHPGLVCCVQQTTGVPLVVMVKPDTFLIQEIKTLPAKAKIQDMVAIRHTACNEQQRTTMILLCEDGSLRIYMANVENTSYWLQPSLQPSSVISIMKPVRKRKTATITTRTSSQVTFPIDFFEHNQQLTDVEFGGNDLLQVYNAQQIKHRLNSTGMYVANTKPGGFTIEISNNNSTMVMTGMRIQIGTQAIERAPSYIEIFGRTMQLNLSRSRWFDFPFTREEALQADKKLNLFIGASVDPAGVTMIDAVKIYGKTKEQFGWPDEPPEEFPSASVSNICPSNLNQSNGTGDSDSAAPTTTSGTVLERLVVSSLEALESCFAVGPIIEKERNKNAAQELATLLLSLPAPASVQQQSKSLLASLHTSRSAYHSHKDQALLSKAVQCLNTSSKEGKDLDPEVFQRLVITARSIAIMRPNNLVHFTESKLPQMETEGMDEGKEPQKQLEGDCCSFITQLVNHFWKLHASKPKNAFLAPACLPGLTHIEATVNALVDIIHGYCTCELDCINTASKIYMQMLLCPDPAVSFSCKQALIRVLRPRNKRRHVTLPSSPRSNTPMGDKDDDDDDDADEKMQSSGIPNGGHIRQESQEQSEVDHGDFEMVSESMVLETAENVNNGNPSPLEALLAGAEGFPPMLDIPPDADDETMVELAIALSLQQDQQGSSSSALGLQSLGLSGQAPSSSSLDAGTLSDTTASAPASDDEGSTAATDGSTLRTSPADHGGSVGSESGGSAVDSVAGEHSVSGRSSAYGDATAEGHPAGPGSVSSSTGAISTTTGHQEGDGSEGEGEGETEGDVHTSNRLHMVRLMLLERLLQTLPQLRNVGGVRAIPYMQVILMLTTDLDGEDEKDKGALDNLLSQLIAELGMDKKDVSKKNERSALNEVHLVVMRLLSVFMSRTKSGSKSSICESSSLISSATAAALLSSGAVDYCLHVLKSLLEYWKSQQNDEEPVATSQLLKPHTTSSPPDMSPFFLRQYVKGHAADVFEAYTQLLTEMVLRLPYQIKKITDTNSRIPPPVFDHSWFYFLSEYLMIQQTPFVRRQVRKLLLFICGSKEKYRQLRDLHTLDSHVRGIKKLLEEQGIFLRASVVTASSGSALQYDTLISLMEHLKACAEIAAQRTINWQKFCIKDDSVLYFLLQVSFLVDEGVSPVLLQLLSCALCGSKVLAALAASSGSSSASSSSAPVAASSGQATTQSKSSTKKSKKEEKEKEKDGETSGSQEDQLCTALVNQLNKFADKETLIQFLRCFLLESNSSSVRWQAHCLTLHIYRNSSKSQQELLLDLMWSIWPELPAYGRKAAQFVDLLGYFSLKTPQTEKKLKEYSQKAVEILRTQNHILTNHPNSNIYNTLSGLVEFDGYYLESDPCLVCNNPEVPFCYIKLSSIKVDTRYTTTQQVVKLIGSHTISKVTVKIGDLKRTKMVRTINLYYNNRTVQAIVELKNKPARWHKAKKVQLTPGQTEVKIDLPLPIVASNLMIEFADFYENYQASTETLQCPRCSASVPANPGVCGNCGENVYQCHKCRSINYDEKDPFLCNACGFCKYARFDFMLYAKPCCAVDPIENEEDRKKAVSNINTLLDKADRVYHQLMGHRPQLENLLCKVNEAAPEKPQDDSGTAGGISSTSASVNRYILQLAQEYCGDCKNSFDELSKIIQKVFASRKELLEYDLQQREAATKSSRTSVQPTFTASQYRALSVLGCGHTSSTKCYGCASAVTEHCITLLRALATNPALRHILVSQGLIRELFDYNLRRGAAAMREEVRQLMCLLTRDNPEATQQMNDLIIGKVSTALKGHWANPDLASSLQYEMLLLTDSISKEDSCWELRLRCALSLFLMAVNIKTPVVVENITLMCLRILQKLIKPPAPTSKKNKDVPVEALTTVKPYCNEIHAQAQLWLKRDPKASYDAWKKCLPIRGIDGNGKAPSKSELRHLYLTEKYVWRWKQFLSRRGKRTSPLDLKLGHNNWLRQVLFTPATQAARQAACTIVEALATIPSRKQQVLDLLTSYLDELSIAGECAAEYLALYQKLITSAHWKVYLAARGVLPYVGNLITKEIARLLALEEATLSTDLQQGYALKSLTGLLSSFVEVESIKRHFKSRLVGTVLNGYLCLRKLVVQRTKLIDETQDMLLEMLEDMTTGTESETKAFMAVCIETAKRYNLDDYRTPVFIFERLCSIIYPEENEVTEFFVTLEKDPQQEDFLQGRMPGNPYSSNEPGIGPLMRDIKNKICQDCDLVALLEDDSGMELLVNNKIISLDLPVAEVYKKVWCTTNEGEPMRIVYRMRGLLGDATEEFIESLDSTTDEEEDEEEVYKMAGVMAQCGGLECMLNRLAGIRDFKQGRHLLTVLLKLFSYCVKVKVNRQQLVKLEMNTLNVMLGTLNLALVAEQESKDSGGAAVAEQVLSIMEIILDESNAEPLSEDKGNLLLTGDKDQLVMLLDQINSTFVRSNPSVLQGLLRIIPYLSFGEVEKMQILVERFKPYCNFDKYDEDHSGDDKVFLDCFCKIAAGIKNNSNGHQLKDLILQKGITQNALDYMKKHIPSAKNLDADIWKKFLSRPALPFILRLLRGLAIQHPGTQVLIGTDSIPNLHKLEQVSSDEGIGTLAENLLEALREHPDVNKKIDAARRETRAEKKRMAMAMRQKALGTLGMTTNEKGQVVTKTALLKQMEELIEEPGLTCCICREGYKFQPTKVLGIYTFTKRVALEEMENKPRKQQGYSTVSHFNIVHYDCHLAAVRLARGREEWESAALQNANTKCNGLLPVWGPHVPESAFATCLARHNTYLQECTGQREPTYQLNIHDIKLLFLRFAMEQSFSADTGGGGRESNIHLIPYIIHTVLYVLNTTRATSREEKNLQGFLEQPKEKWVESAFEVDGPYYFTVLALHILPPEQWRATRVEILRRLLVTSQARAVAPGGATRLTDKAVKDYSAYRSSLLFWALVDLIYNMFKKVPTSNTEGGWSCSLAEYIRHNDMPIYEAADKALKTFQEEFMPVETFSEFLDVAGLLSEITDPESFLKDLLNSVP

Substance | solubility in G1/S (log2) (HeLa Kyoto [1]) | melting temperature (HeLa Kyoto [2]; cell cycle stage: G1/S) | melting temperature (HeLa Kyoto [2]; cell cycle stage: mitosis) | solubility change mitosis (log2) (HeLa Kyoto [3]) | thermal stability score (HeLa Kyoto [4]; [5]) | thermal stability score (HeLa Kyoto [4]; cell cycle stage: mitosis)
MLARAARGTGALLLRGSLLASGRAPRRASSGLPRNTVVLFVPQQEAWVVERMGRFHRILEPGLNILIPVLDRIRYVQSLKEIVINVPEQSAVTLDNVTLQIDGVLYLRIMDPYKASYGVEDPEYAVTQLAQTTMRSELGKLSLDKVFRERESLNASIVDAINQAADCWGIRCLRYEIKDIHVPPRVKESMQMQVEAERRKRATVLESEGTRESAINVAEGKKQAQILASEAEKAEQINQAAGEASAVLAKAKAKAEAIRILAAALTQHNGDAAASLTVAEQYVSAFSKLAKDSNTILLPSNPGDVTSMVAQAMGVYGALTKAPVPGTPDSLSSGSSRDVQGTDASLDEELDRVKMS [STOML2] | 0.262 | 56.9 °C | 59.3 °C | 0.0559 | -3.41 | -3.22
MPENVAPRSGATAGAAGGRGKGAYQDRDKPAQIRFSNISAAKAVADAIRTSLGPKGMDKMIQDGKGDVTITNDGATILKQMQVLHPAARMLVELSKAQDIEAGDGTTSVVIIAGSLLDSCTKLLQKGIHPTIISESFQKALEKGIEILTDMSRPVELSDRETLLNSATTSLNSKVVSQYSSLLSPMSVNAVMKVIDPATATSVDLRDIKIVKKLGGTIDDCELVEGLVLTQKVSNSGITRVEKAKIGLIQFCLSAPKTDMDNQIVVSDYAQMDRVLREERAYILNLVKQIKKTGCNVLLIQKSILRDALSDLALHFLNKMKIMVIKDIEREDIEFICKTIGTKPVAHIDQFTADMLGSAELAEEVNLNGSGKLLKITGCASPGKTVTIVVRGSNKLVIEEAERSIHDALCVIRCLVKKRALIAGGGAPEIELALRLTEYSRTLSGMESYCVRAFADAMEVIPSTLAENAGLNPISTVTELRNRHAQGEKTAGINVRKGGISNILEELVVQPLLVSVSALTLATETVRSILKIDDVVNTR [CCT4] | 0.192 | 53.6 °C | 53.1 °C | -0.141 | -1.23 | -2.24
MDPRKVNELRAFVKMCKQDPSVLHTEEMRFLREWVESMGGKVPPATQKAKSEENTKEEKPDSKKVEEDLKADEPSSEESDLEIDKEGVIEPDTDAPQEMGDENAEITEEMMDQANDKKVAAIEALNDGELQKAIDLFTDAIKLNPRLAILYAKRASVFVKLQKPNAAIRDCDRAIEINPDSAQPYKWRGKAHRLLGHWEEAAHDLALACKLDYDEDASAMLKEVQPRAQKIAEHRRKYERKREEREIKERIERVKKAREEHERAQREEEARRQSGAQYGSFPGGFPGGMPGNFPGGMPGMGGGMPGMAGMPGLNEILSDPEVLAAMQDPEVMVAFQDVAQNPANMSKYQSNPKVMNLISKLSAKFGGQA [ST13] | 0.813 | 51.8 °C | 51.3 °C | 0.103 | 2.23 | 1.79
MATESPATRRVQVAEHPRLLKLKEMFNSKFGSIPKFYVRAPGRVNIIGEHIDYCGYSVLPMAVEQDVLIAVEPVKTYALQLANTNPLYPDFSTSANNIQIDKTKPLWHNYFLCGLKGIQEHFGLSNLTGMNCLVDGNIPPSSGLSSSSALVCCAGLVTLTVLGRNLSKVELAEICAKSERYIGTEGGGMDQSISFLAEEGTAKLIEFSPLRATDVKLPSGAVFVIANSCVEMNKAATSHFNIRVMECRLAAKLLAKYKSLQWDKVLRLEEVQAKLGISLEEMLLVTEDALHPEPYNPEEICRCLGISLEELRTQILSPNTQDVLIFKLYQRAKHVYSEAARVLQFKKICEEAPENMVQLLGELMNQSHMSCRDMYECSCPELDQLVDICRKFGAQGSRLTGAGWGGCTVSMVPADKLPSFLANVHKAYYQRSDGSLAPEKQSLFATKPGGGALVLLEA [GALK2] | 0.145 | 54.5 °C | 54.2 °C | -0.141 | 0.289 | 0.99
MPHRKERPSGSSLHTHGSTGTAEGGNMSRLSLTRSPVSPLAAQGIPLPAQLTKSNAPVHIDVGGHMYTSSLATLTKYPDSRISRLFNGTEPIVLDSLKQHYFIDRDGEIFRYVLSFLRTSKLLLPDDFKDFSLLYEEARYYQLQPMVRELERWQQEQEQRRRSRACDCLVVRVTPDLGERIALSGEKALIEEVFPETGDVMCNSVNAGWNQDPTHVIRFPLNGYCRLNSVQVLERLFQRGFSVAASCGGGVDSSQFSEYVLCREERRPQPTPTAVRIKQEPLD [KCTD15] | 0.447 | 56 °C | 56.9 °C | -0.0635 | -2.02 | 0.00454
UBR4 | -0.243 | 51.3 °C | 50.4 °C | -0.163 | -0.403 | 0.0628
MAKISSPTETERCIESLIAVFQKYAGKDGYNYTLSKTEFLSFMNTELAAFTKNQKDPGVLDRMMKKLDTNSDGQLDFSEFLNLIGGLAMACHDSFLKAVPSQKRT [S100A11] | -1.04 | 53.8 °C | 52.6 °C | 0.343 | -4.03 | -4.13
MGKRGSRSQSQLLNTLTKKQKKHLRDFGEEHPFYDRVSRKEAKPQICQLSESSDSSDSESDSESEPQQVSGYHRLLATLKNVSEEEEEDEEEEEEEDSIVDDAEMNDEDGGSDVSVEEEMAAESTESPENVALSADPEGKEDGEEPPGTSQTSPEEFTDAKHESLFSLETNFLEEESGDNSSLKASQDPFLQHVNKELKEKAIQAVATNPKTTHELKWPILGQLFFSSKFQKLETFKPPKDIDLKSLHLQKPLESTWTKTNSQFLSGPQKSSSPFTPLQKELFLIMNSYRDLFYPERTALKNGEEIRHVYCLHVINHILKANAQVLGNNSRRRSQKFGVGDDDDFRDQGLTRPKVLIVVPFREAALRVVQLFISLLEGDSKKKIIVSNKKRFQGEYGSDPEERPPNLKRPEDYEAVFVGNIDDHFRIGVAILQRSIRLYAPFYSSDILIASPLGLRTIIGGEGEKKRDFDFLSSIELLIIDQADIYLMQNWEHVLHLMNHMNLLPLDSHGVDFSRVRMWSLNNWSKYYRQTLLFGALQDAQINSVFNKYCVNMQGQVAVRNVPMTGSISHVLVQLPHVFQRMEAENLASVIDARFNFFVNKILPQYRDAVMSHTLIYIPSYFDFVRLRNYFKKEELNFTHICEYTQKSGVSRARHFFLQGEKQFLLFTERFHFYKRYTIKGIRNLIFYELPTYPHFYSEICNMLRATNRGEEATWTCTVLYSKYDAQRLAAVVGVERAAQMLQSNKNVHLFITGEK [DIEXF] | -0.69 | 47.2 °C | 49.3 °C | 0.17 | 0.651 | 2.11
MVGSLNCIVAVSQNMGIGKNGDLPWPPLRNEFRYFQRMTTTSSVEGKQNLVIMGKKTWFSIPEKNRPLKGRINLVLSRELKEPPQGAHFLSRSLDDALKLTEQPELANKVDMVWIVGGSSVYKEAMNHPGHLKLFVTRIMQDFESDTFFPEIDLEKYKLLPEYPGVLSDVQEEKGIKYKFEVYEKND [DHFR] | 0.294 | 47.9 °C | 49.1 °C | -0.139 | 1.37 | 2.73
MATSNLLKNKGSLQFEDKWDFMRPIVLKLLRQESVTKQQWFDLFSDVHAVCLWDDKGPAKIHQALKEDILEFIKQAQARVLSHQDDTALLKAYIVEWRKFFTQCDILPKPFCQLEITLMGKQGSNKKSNVEDSIVRKLMLDTWNESIFSNIKNRLQDSAMKLVHAERLGEAFDSQLVIGVRESYVNLCSNPEDKLQIYRDNFEKAYLDSTERFYRTQAPSYLQQNGVQNYMKYADAKLKEEEKRALRYLETRRECNSVEALMECCVNALVTSFKETILAECQGMIKRNETEKLHLMFSLMDKVPNGIEPMLKDLEEHIISAGLADMVAAAETITTDSEKYVEQLLTLFNRFSKLVKEAFQDDPRFLTARDKAYKAVVNDATIFKLELPLKQKGVGLKTQPESKCPELLANYCDMLLRKTPLSKKLTSEEIEAKLKEVLLVLKYVQNKDVFMRYHKAHLTRRLILDISADSEIEENMVEWLREVGMPADYVNKLARMFQDIKVSEDLNQAFKEMHKNNKLALPADSVNIKILNAGAWSRSSEKVFVSLPTELEDLIPEVEEFYKKNHSGRKLHWHHLMSNGIITFKNEVGQYDLEVTTFQLAVLFAWNQRPREKISFENLKLATELPDAELRRTLWSLVAFPKLKRQVLLYEPQVNSPKDFTEGTLFSVNQEFSLIKNAKVQKRGKINLIGRLQLTTERMREEENEGIVQLRILRTQEAIIQIMKMRKKISNAQLQTELVEILKNMFLPQKKMIKEQIEWLIEHKYIRRDESDINTFIYMA [CUL5] | -0.152 | 55.6 °C | 54 °C | -0.233 | -0.282 | -0.5
MPRKRKCDLRAVRVGLLLGGGGVYGSRFRFTFPGCRALSPWRVRVQRRRCEMSTMFADTLLIVFISVCTALLAEGITWVLVYRTDKYKRLKAEVEKQSKKLEKKKETITESAGRQQKKKIERQEEKLKNNNRDLSMVRMKSMFAIGFCFTALMGMFNSIFDGRVVAKLPFTPLSYIQGLSHRNLLGDDTTDCSFIFLYILCTMSIRQNIQKILGLAPSRAATKQAGGFLGPPPPSGKFS [TMCO1] | -0.0501 | 53.7 °C | 54.1 °C | 0.0683 | -0.0145 | -0.0344
MEKSSSCESLGSQPAAARPPSVDSLSSASTSHSENSVHTKSASVVSSDSISTSADNFSPDLRVLRESNKLAEMEEPPLLPGENIKDMAKDVTYICPFTGAVRGTLTVTNYRLYFKSMERDPPFVLDASLGVINRVEKIGGASSRGENSYGLETVCKDIRNLRFAHKPEGRTRRSIFENLMKYAFPVSNNLPLFAFEYKEVFPENGWKLYDPLLEYRRQGIPNESWRITKINERYELCDTYPALLVVPANIPDEELKRVASFRSRGRIPVLSWIHPESQATITRCSQPMVGVSGKRSKEDEKYLQAIMDSNAQSHKIFIFDARPSVNAVANKAKGGGYESEDAYQNAELVFLDIHNIHVMRESLRKLKEIVYPNIEETHWLSNLESTHWLEHIKLILAGALRIADKVESGKTSVVVHCSDGWDRTAQLTSLAMLMLDGYYRTIRGFEVLVEKEWLSFGHRFQLRVGHGDKNHADADRSPVFLQFIDCVWQMTRQFPTAFEFNEYFLITILDHLYSCLFGTFLCNSEQQRGKENLPKRTVSLWSYINSQLEDFTNPLYGSYSNHVLYPVASMRHLELWVGYYIRWNPRMKPQEPIHNRYKELLAKRAELQKKVEELQREISNRSTSSSERASSPAQCVTPVQTVV [MTMR2] | 0.0322 | 53.4 °C | 53 °C | -0.12 | -1.45 | -1.51
MMNKLYIGNLSPAVTADDLRQLFGDRKLPLAGQVLLKSGYAFVDYPDQNWAIRAIETLSGKVELHGKIMEVDYSVSKKLRSRKIQIRNIPPHLQWEVLDGLLAQYGTVENVEQVNTDTETAVVNVTYATREEAKIAMEKLSGHQFENYSFKISYIPDEEVSSPSPPQRAQRGDHSSREQGHAPGGTSQARQIDFPLRILVPTQFVGAIIGKEGLTIKNITKQTQSRVDIHRKENSGAAEKPVTIHATPEGTSEACRMILEIMQKEADETKLAEEIPLKILAHNGLVGRLIGKEGRNLKKIEHETGTKITISSLQDLSIYNPERTITVKGTVEACASAEIEIMKKLREAFENDMLAVNQQANLIPGLNLSALGIFSTGLSVLSPPAGPRGAPPAAPYHPFTTHSGYFSSLYPHHQFGPFPHHHSYPEQEIVNLFIPTQAVGAIIGKKGAHIKQLARFAGASIKIAPAEGPDVSERMVIITGPPEAQFKAQGRIFGKLKEENFFNPKEEVKLEAHIRVPSSTAGRVIGKGGKTVNELQNLTSAEVIVPRDQTPDENEEVIVRIIGHFFASQTAQRKIREIVQQVKQQEQKYPQGVASQRSK [IGF2BP2] | -0.0149 | 48.7 °C | 47.8 °C | 0.0614 | -0.347 | -0.134
MPLSDFILALKDNPYFGAGFGLVGVGTALALARKGVQLGLVAFRRHYMITLEVPARDRSYAWLLSWLTRHSTRTQHLSVETSYLQHESGRISTKFEFVPSPGNHFIWYRGKWIRVERSREMQMIDLQTGTPWESVTFTALGTDRKVFFNILEEARELALQQEEGKTVMYTAVGSEWRPFGYPRRRRPLNSVVLQQGLADRIVRDVQEFIDNPKWYTDRGIPYRRGYLLYGPPGCGKSSFITALAGELEHSICLLSLTDSSLSDDRLNHLLSVAPQQSLVLLEDVDAAFLSRDLAVENPVKYQGLGRLTFSGLLNALDGVASTEARIVFMTTNHVDRLDPALIRPGRVDLKEYVGYCSHWQLTQMFQRFYPGQAPSLAENFAEHVLRATNQISPAQVQGYFMLYKNDPVGAIHNAESLRR [BCS1L] | -0.165 | 55.4 °C | 54.8 °C | -0.291 | 0.147 | -1.22
